Laboratory results taken from patent US8524227B2, “Anti-IL-TIF antibodies” (ZymoGenetics, Inc., priority 2002, dated 2013).

Experiments:
BaF3/CRF2-4 cells = assay: Alamar Blue proliferation assay, BaF3/CRF2-4 cells; type: cell-based, murine
[1] = molecular target: T1, CRF2-4/zcytor11 heterodimeric receptor (Homo sapiens, UniProt Q08334+Q8N6P7, R518G); assay: Alamar Blue proliferation assay, BaF3/CRF2-4/zcytor11 cells; type: cell-based; settings: 50 ng/ml IL-TIF-CEE
T1 construct: BaF3 cells expressing the full-length CFR2-4 receptor were constructed; expressed in transfected cells
T1 sequence (Q8N6P7 16-574 R518G): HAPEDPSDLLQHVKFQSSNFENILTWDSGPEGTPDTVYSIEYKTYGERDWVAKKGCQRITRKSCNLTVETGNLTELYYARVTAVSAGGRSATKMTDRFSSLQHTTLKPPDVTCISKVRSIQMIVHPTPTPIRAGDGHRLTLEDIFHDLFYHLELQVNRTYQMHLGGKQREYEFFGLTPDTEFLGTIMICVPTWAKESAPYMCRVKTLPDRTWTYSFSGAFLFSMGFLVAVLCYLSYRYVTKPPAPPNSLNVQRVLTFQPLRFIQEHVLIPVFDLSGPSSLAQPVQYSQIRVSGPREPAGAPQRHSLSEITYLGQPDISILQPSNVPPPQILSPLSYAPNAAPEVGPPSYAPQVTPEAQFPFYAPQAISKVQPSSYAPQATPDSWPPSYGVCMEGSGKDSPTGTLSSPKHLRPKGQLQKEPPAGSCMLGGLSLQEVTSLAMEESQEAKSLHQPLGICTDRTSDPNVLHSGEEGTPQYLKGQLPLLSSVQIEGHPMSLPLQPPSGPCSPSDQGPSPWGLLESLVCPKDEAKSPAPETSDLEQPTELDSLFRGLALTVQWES
T1 sequence (Q08334 20-325): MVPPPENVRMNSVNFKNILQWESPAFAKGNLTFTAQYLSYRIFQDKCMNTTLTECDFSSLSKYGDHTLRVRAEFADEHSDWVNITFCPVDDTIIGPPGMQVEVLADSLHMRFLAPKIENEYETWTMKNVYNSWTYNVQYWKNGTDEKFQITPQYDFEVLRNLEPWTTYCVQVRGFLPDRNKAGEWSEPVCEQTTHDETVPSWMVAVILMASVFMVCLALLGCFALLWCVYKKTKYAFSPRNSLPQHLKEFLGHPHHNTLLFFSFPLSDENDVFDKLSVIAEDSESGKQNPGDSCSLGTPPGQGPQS
Protocol: BaF3/CRF2-4/zcytor11 cells were spun down and washed in the complete media, described in Example 21A above, but without mIL-3 (hereinafter referred to as “mIL-3 free media”). The cells were spun and washed 3 times to ensure the removal of the mIL-3 Cells were then counted in a hemacytometer. Cells were plated in a 96-well format at 5000 cells per well in a volume of 100 μl per well using the mIL-3 free media.
Proliferation of the BaF3/CRF2-4/zcytor11 cells was assessed using IL-TIF-CEE protein diluted with mIL-3 free media to 50, 10, 2, 1, 0.5, 0.25, 0.13, 0.06 ng/ml concentrations. 100 μl of the diluted protein was added to the BaF3/CRF2-4/zcytor11 cells. The total assay volume is 200 μl. […] Alamar Blue gives a fluourometric readout based on number of live cells, and is thus a direct measurement of cell proliferation in comparison to a negative control. […] Plates were read on the Finax™ plate reader (Molecular Devices Sunnyvale, Calif.) using the SoftMax™ Pro program, at wavelengths 544 (Excitation) and 590 (Emmission). […] The response, as measured, was approximately 15-fold over background at the high end of 50 ng/ml down to a 2-fold induction at the low end of 0.06 ng/ml. […]
IL-TIF protein (SEQ ID NO:3) was diluted to 200 pg/ml in mIL-3 free media. […] Plates were read on the Wallac Victor 2 1420 Multilabel Counter (Wallac, Turku, Finland) at wavelengths 530 (Excitation) and 590 (Emmssion). […]

BaF3 wild type cells = assay: Alamar Blue proliferation assay, BaF3 wild type cells; type: cell-based, murine

proliferative response over background [1]: approximately 15 fold
B1: IL-TIF-CEE: IL-TIF polypeptide containing C-terminal GluGlu (EE) tag, purified from BHK 570 cells (protein)
chain: APISSHCRLDKSNFQQPYITNRTFMLAKEASLADNNTDVRLIGEKLFHGVSMSERCYLMKQVLNFTLEEVLFPQSDRFQPYMQEVVPFLARLSNRLSTCHIEGDDLHIQRNVQKLKDTVKKLGESGEIKAIGELDLLFMSLRNACIEYMPME
proliferation in response to IL-TIF-CEE (BaF3/CRF2-4 cells): did not proliferate
proliferation in response to IL-TIF-CEE (BaF3 wild type cells): did not proliferate
